Laboratory results reported in article doi:10.1101/331207 (bioRxiv, 2018).

Biological target: the molecule itself
Test: cryo-EM structure

B1: human LRRC8A (leucine-rich repeat-containing 8A) wild-type protein (natural protein)
chain: MIPVTELRYFADTQPAYRILKPWWDVFTDYISIVMLMIAVFGGTLQVTQDKMICLPCKWVTKDSCNDSFRGWAAPGPEPTYPNSTILPTPDTGPTGIKYDLDRHQYNYVDAVCYENRLHWFAKYFPYLVLLHTLIFLACSNFWFKFPRTSSKLEHFVSILLKCFDSPWTTRALSETVVEESDPKPAFSKMNGSMDKKSSTVSEDVEATVPMLQRTKSRIEQGIVDRSETGVLDKKEGEQAKALFEKVKKFRTHVEEGDIVYRLYMRQTIIKVIKFILIICYTVYYVHNIKFDVDCTVDIESLTGYRTYRCAHPLATLFKILASFYISLVIFYGLICMYTLWWMLRRSLKKYSFESIREESSYSDIPDVKNDFAFMLHLIDQYDPLYSKRFAVFLSEVSENKLRQLNLNNEWTLDKLRQRLTKNAQDKLELHLFMLSGIPDTVFDLVELEVLKLELIPDVTIPPSIAQLTGLKELWLYHTAAKIEAPALAFLRENLRALHIKFTDIKEIPLWIYSLKTLEELHLTGNLSAENNRYIVIDGLRELKRLKVLRLKSNLSKLPQVVTDVGVHLQKLSINNEGTKLIVLNSLKKMANLTELELIRCDLERIPHSIFSLHNLQEIDLKDNNLKTIEEIISFQHLHRLTCLKLWYNHIAYIPIQIGNLTNLERLYLNRNKIEKIPTQLFYCRKLRYLDLSHNNLTFLPADIGLLQNLQNLAITANRIETLPPELFQCRKLRALHLGNNVLQSLPSRVGELTNLTQIELRGNRLECLPVELGECPLLKRSGLVVEEDLFNTLPPEVKERLWRADKEQA
- stoichiometry N: 6
